This note sets out measurements from PMC9430930.

The test system of this data set is NupR (NagR2) (Bacillus thuringiensis BMB171), ORF:032de0b7. The data set is described as follows: EMSA. The following applies: NupR: 10 mM Tris-HCl pH 7.5, 50 mM NaCl, 0.5 mM DTT, 4% glycerol, 200 ng poly(dI-dC), 25 C 30 min, ComK/CcpA/PurR: 10 mM Tris-HCl pH 8.0, 50 mM KCl.

For the sequence “CGCATTTCAATTATTCGACCTCTGATGTAAGACTTCTTTTCTCTTTTTTCAACTTACAACATAGTACAAATGACTAAACACCAAAATAAGTGTAATTGTCGAATAAATAATAATAATTTTTTAAAATAAAATTTTCACTCTTTATTGCATAAAAAAAACTTTGCACCATAAACATTCCTCATTTCGAGAAAAAGTTCGGCACAAAGATCCTTTACATCCTTTGTTACACACTTTTCCCCTCATAGTCTAGCAATTCATGGTTGCC (double strand) [nagR2 (nupR) promoter]”, the binding result is on record as “binds”.

On to “CTAATACAACACGGTTAATACCTTTTTTCATTTCAAAATTCCTCGCAATTTCATTGATTTTATTATGTAAGATAATACGTCTTACTTCTATAGAGTCATATCTAGTTTATTACATTTTATAAAAGATATTCAAGTATTTGAAAATGTATCCGTGCAAATCCGCGAACAAAACATAGGAATTCAGTGAACCGAATATAATTCAGTAAAATCCTTTGTAAAAGGGGAAATGGCATGG (double strand) [ldh promoter]”, for which the binding entry is “binds”. “GGTGAAATAGTATGGTCATCACGTAATAAAGTATCATCTAAATCTAAAACAATCATTTTATAAGTCATATAGAAAATTCCTTTCTTTAATTGAAATCAAAATACATGTTCATGAAGATGTTGAGGAATAATAGTAAGACATCAAACCTCTTTGAAAAGAAGTAGATAAATTATTATGAGTTGTTGCTCATAATATTGGTTAATAATCATTGGGGAAGAATAAAACCCCAATGATTAAAGTTTGATTTTATCGTAACAACTCTAAAGGTAGAGTGCAATAATGGAAGTT (double strand) [had promoter]”: the binding entry was “binds”. As for “TGCATACTTACTCACCATCCCATTAGAACAATCTAATTTTTTGAGTTGTCATACCACTACAATAATGTGAATTCGACAATTTTTGATATGAAATAATGCATAATATATATAAAATTCGGCAAATTTTTCATACAATTCATCTCACATACAATAATAGATTAGGAGTGTTATAGATGAATTATAG (double strand) [baci promoter]”, the binding result is recorded as “binds”.
